We go through 1 molecule from US20050070692A1 (published 2005).

A word on the IC50: it is the concentration needed to halve the response being measured.

The target in experiment [1] is T1, human IL-1β (human, UniProt P01584 117-269). As to the kind of experiment: cell-based or functional assay.
In the next experiment the target is T2, mouse IL-1β (mouse, UniProt P10749 118-269).
T2 sequence (looked up): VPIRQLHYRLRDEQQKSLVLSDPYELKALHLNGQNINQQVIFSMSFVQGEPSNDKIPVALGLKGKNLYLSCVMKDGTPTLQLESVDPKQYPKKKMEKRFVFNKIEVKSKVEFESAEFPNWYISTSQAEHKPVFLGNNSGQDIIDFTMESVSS
Put plainly: BIAcore, antibody captured on anti-IgG chip, ligand flowed. On the procedure: (§1) Affinities and specificities of both Hu007 and Mu007 were determined using BlAcore measurements. BIAcore™ is an automated biosensor system that measures molecular interactions. (Karlsson, et al. (1991) J. Immunol. Methods 145: 229-240). In these experiments antibody was immobilized at low density on a BIAcore™ chip. Ethyl-dimethylaminopropyl-carbodiimide (EDC) was used to couple reactive amino groups to purified goat anti-human IgG or goat anti-rabbit IgG to a flow cell of a carboxy-methyl (CM5) BIAcore™ sensor chip. Goat IgG was diluted in sodium acetate buffer, pH 4.0, and immobilized on a flow cell of a CM5 chip using EDC to yield 1000 response units. Unreacted sites were blocked with ehanolamine. A flow rate of 60 μL/min was used. Multiple binding/elution cycles were performed by injection a 100 μL solution of 15 μg/mL Mu007 or Hu007 followed by human IL-1β, mouse IL-1β, rat IL-1β, cynomolgus monkey IL-1β, porcine IL-1β, human IL-1 receptor antagonist, and human IL-1α at decreasing concentrations for each cycle (e.g., 1500, 750, 375, 188, 94, 47, 23.5, 12, and 0 picomolar). Elution was performed with glycine-HCl, pH 1.5. BIAevaluation™ was used to analyze the kinetic data. Table 2 depicts the affinities of Hu007 and Mu007 for human and cynomolgus IL-1β. […] Cynomolgus and porcine IL-1β had 100% binding to Hu007 relative to human IL-1β.
(In general: SPR reads the build-up and loss of mass on a sensor chip optically.)

For the next experiment, the target named is T3, rat IL-1β (rat, UniProt Q63264 117-268).
T3 sequence (looked up): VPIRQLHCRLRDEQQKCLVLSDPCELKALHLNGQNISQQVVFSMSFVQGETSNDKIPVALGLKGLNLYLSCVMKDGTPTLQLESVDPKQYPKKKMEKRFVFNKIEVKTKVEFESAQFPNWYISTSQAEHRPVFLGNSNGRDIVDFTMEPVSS
Described as above. The method, then:
as §1

For experiment [2], the target named is T4, human IL-1 receptor antagonist (human, UniProt P18510 26-177).
T4 construct: also called IL-1ra
The description is as above. The method, then: as §1

For the next experiment, the target named is T5, human IL-1α (human, UniProt P01583 113-271).
T5 sequence (looked up): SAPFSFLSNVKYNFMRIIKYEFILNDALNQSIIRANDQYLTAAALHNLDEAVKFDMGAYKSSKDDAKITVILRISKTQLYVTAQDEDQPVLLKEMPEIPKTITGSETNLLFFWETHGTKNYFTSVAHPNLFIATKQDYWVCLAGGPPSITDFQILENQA
The experiment is described as above. The method, then: as §1

Experiment [3] has as its target T1, human IL-1β. Put plainly: competition ELISA on coated human IL-1β against biotinylated Mu007, Exp. A. On the procedure: (§2) Wells of 96-well ELISA plates (Nunc-lmmuno plate, Cat # 439454, NalgeNunc) were coated with 100 μL of 0.5. μg/mL of human IL-1β in 0.2M sodium carbonate-bicarbonate buffer (pH 9.4) overnight at 4° C., washed with Wash Buffer, blocked with Superblock blocking buffer for 30 min at 37° C., and washed again with Wash Buffer. A mixture of biotinylated Mu007 (0.16 μg/mL final concentration) and competitor antibody (Mu007, Hu007, or Hu007 analogs starting at 100 μg/mL final concentration and serial 3-fold dilutions) in ELISA Buffer were added in triplicate in a final volume of 100 μL per well. As a no-competitor control, 100 μL of 0.16 μg/mL biotinylated Mu007 was used. As a background control, 100 gLL of ELISA Buffer was used. ELISA plates were incubated at 37° C. for 2 hr. After washing the wells with Washing Buffer, 100 μL of 1 μg/mL HRP-conjugated streptavidin (Jackson ImmunoResearch) was added to each well. ELISA plates were incubated at room temperature for 30 min and washed with Washing Buffer. For color development, 100 μL/well of ABTS substrate was added. Color development was stopped by adding 100 μL/well of 2% oxalic acid. Absorbance was read at 415 nm.
(§3) Mu007, Hu007 and Hu007 analogs competed with biotinylated Mu007 in a concentration-dependent manner. The IC₅₀ values of Mu007 and Hu007 in three independent ELISA competition experiments, obtained using the computer software Prism (GraphPad Software Inc., San Diego, Calif.) are shown in Table 1. The relative binding of Hu007 was on average 89% of Mu007.

Experiment [4] concerns the target T1, human IL-1β. As to the kind of experiment: competition ELISA on coated human IL-1β against biotinylated Mu007, Exp. B. On the procedure: as §2, §3
In general terms: In an ELISA, binding on a coated surface is turned into a signal by an enzyme label.

Experiment [5] deals with T1, human IL-1β. Put plainly: competition ELISA on coated human IL-1β against biotinylated Mu007, Exp. C. The method, then: as §2, §3

T4 sequence (P18510 26-177 limits assumed): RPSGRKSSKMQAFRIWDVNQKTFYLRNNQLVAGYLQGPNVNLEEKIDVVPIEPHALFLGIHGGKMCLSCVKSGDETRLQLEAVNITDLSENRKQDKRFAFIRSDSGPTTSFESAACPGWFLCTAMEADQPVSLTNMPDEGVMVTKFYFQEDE

B1: humanized antibody Hu007 (antibody, human IgG1, kappa, V domains shown)
VH: QVQLVQSGAEVKKPGASVKVSCKVSGYTFSRYWIEWVRQAPGKGLEWIGEILPGNGNINYNEKFKGKATITADTSTDTAYMELSSLRSEDTAVYYCSTIYYDYDQGFTYWGQGTLVTVSS
VL: DIQMTQSPSSLSASVGDRVTITCKASQDIDRYLSWFQQKPGKAPKSLIYRVKRLVDGVPSRFSGSASGTDYTLTISSLQPEDFATYYCLQYDEFPYTFGQGTKLEIKR
notes: Human IgG1 kappa; also called WT; Hu007 WT
Regarding B1, the “IC50, inhibition of human IL-1β stimulated proliferation” value in the experiment with human IL-1β [1] came to 57 Picomolar. In addition, the binding result (in the experiment with mouse IL-1β; with rat IL-1β; in experiment [2]; with human IL-1α) was “no binding” throughout. Moreover, the “Hu007/Mu007 × 100 (IC50 ratio, relative binding against Mu007)” value was 98% with human IL-1β [3], 88% in the experiment with human IL-1β [4] and 82% in the experiment with human IL-1β [5]. Also, the IC50 with human IL-1β [3] stood at 0.39 µg/mL; in the experiment with human IL-1β [4], 0.35 µg/mL; with human IL-1β [5], 0.32 µg/mL.
